The values that follow come from patent publication US20170356905 (published 2017).

This data set has as its target alpha-thrombin (Homo sapiens, UniProt P00734;P00734 P00734:328-363,P00734:364-622). The data set is described as follows: competition; collected complementary strand (SEQ 3) increased with thrombin 0-100 ppm; HEPES/NaCl/KCl/MgCl2/Tween 20 buffer, room temperature.

For GGTTGGTGTGGTTGGTTTTT (ssDNA, 3'-biotin; five T added at 3' end (included in SEQ)) [thrombin aptamer TA-3bio], the binding result was “binds”.
